Positions count from the first letter of the chain named.
B1: B8.2.4 TCR mutant β96T-E (TCR, V domains shown)
V domain 1: AQKITQTQPGMFVQEKEAVTLDCTYDTSDPSYGLFWYKQPSSGEMIFLIYQGSYDQQNATEGRYSLNFQKARKSANLVISASQLGDSAMYFCAMRERTGTASKLTFGTGTRLQVTL
V domain 2: DVKVTQSSRYLVKRTGEKVFLECVQDMDHENMFWYRQDPGLGLRLIYFSYDVKMKEKGDIPEGYSVSREKKERFSLILESASTNQTSMYLCASSQEVPPQHFGDGTRLSILE
B2: B8.2.4 TCR mutant β97V-H (TCR, V domains shown)
V domain 1: B1 V domain 1
V domain 2: B1 V domain 2 with E96T, V97H
B3: B8.2.4 TCR mutant β97V-C (TCR, V domains shown)
V domain 1: B1 V domain 1
V domain 2: B1 V domain 2 with E96T, V97C
B4: B8.2.4 TCR mutant β96T-W (TCR, V domains shown)
V domain 1: B1 V domain 1
V domain 2: B1 V domain 2 with E96W
B5: B8.2.4 TCR mutant β96T-N (TCR, V domains shown)
V domain 1: B1 V domain 1
V domain 2: B1 V domain 2 with E96N
B6: B8.2.4 TCR mutant β97V-K (TCR, V domains shown)
V domain 1: B1 V domain 1
V domain 2: B1 V domain 2 with E96T, V97K
B7: B8.2.4 TCR mutant β96T-K (TCR, V domains shown)
V domain 1: B1 V domain 1
V domain 2: B1 V domain 2 with E96K
B8: B8.2.4 TCR mutant β96T-F (TCR, V domains shown)
V domain 1: B1 V domain 1
V domain 2: B1 V domain 2 with E96F
B9: B8.2.4 TCR mutant β97V-M (TCR, V domains shown)
V domain 1: B1 V domain 1
V domain 2: B1 V domain 2 with E96T, V97M
B10: B8.2.4 TCR mutant β96T-I (TCR, V domains shown)
V domain 1: B1 V domain 1
V domain 2: B1 V domain 2 with E96I
B11: B8.2.4 TCR mutant β97V-R (TCR, V domains shown)
V domain 1: B1 V domain 1
V domain 2: B1 V domain 2 with E96T, V97R
B12: B8.2.4 TCR mutant β97V-F (TCR, V domains shown)
V domain 1: B1 V domain 1
V domain 2: B1 V domain 2 with E96T, V97F
B13: B8.2.4 TCR mutant β96T-Y (TCR, V domains shown)
V domain 1: B1 V domain 1
V domain 2: B1 V domain 2 with E96Y
B14: B8.2.4 TCR mutant β97V-Q (TCR, V domains shown)
V domain 1: B1 V domain 1
V domain 2: B1 V domain 2 with E96T, V97Q
B15: B8.2.4 TCR mutant β97V-P (TCR, V domains shown)
V domain 1: B1 V domain 1
V domain 2: B1 V domain 2 with E96T, V97P
B16: B8.2.4 TCR mutant β97V-L (TCR, V domains shown)
V domain 1: B1 V domain 1
V domain 2: B1 V domain 2 with E96T, V97L
B17: B8.2.4 TCR mutant β96T-Q (TCR, V domains shown)
V domain 1: B1 V domain 1
V domain 2: B1 V domain 2 with E96Q
B18: B8.2.4 TCR mutant β96T-P (TCR, V domains shown)
V domain 1: B1 V domain 1
V domain 2: B1 V domain 2 with E96P
B19: B8.2.4 TCR mutant β97V-E (TCR, V domains shown)
V domain 1: B1 V domain 1
V domain 2: B1 V domain 2 with E96T, V97E
B20: B8.2.4 TCR mutant β97V-N (TCR, V domains shown)
V domain 1: B1 V domain 1
V domain 2: B1 V domain 2 with E96T, V97N
B21: B8.2.4 TCR mutant β97V-G (TCR, V domains shown)
V domain 1: B1 V domain 1
V domain 2: B1 V domain 2 with E96T, V97G
B22: B8.2.4 TCR mutant β97V-S (TCR, V domains shown)
V domain 1: B1 V domain 1
V domain 2: B1 V domain 2 with E96T, V97S
B23: B8.2.4 TCR mutant β97V-I (TCR, V domains shown)
V domain 1: B1 V domain 1
V domain 2: B1 V domain 2 with E96T, V97I
B24: B8.2.4 TCR mutant β96T-M (TCR, V domains shown)
V domain 1: B1 V domain 1
V domain 2: B1 V domain 2 with E96M
B25: B8.2.4 TCR mutant β96T-R (TCR, V domains shown)
V domain 1: B1 V domain 1
V domain 2: B1 V domain 2 with E96R
B26: B8.2.4 TCR mutant β96T-S (TCR, V domains shown)
V domain 1: B1 V domain 1
V domain 2: B1 V domain 2 with E96S
B27: B8.2.4 TCR mutant β96T-V (TCR, V domains shown)
V domain 1: B1 V domain 1
V domain 2: B1 V domain 2 with E96V
B28: B8.2.4 TCR mutant β96T-G (TCR, V domains shown)
V domain 1: B1 V domain 1
V domain 2: B1 V domain 2 with E96G
B29: B8.2.4 TCR mutant β96T-L (TCR, V domains shown)
V domain 1: B1 V domain 1
V domain 2: B1 V domain 2 with E96L
B30: B8.2.4 TCR mutant β97V-D (TCR, V domains shown)
V domain 1: B1 V domain 1
V domain 2: B1 V domain 2 with E96T, V97D
B31: B8.2.4 TCR mutant β97V-A (TCR, V domains shown)
V domain 1: B1 V domain 1
V domain 2: B1 V domain 2 with E96T, V97A
B32: B8.2.4 TCR mutant β96T-H (TCR, V domains shown)
V domain 1: B1 V domain 1
V domain 2: B1 V domain 2 with E96H

target: KRAS G13D antigen (G13D-RT6, SEQ ID NO: 20) loaded on Lovo-DPA0301:DPB0501 cells (human); assay: cell-based or functional assay

Row | TCR Mut RLU/WT RLU [ratio] | Binder
1 | 0.06 | B1
2 | 0.44 | B2
3 | 0.37 | B3
4 | 0.64 | B4
5 | 0.82 | B5
6 | 0.48 | B6
7 | 0.84 | B7
8 | 0.42 | B8
9 | 0.35 | B9
10 | 0.41 | B10
11 | 0.37 | B11
12 | 0.31 | B12
13 | 0.4 | B13
14 | 0.3 | B14
15 | 0.32 | B15
16 | 0.58 | B16

Row | TCR Mut RLU/WT RLU [ratio] | Binder
17 | 0.57 | B17
18 | 0.39 | B18
19 | 0.31 | B19
20 | 0.26 | B20
21 | 0.26 | B21
22 | 0.78 | B22
23 | 0.61 | B23
24 | 0.35 | B24
25 | 0.49 | B25
26 | 0.8 | B26
27 | 0.97 | B27
28 | 0.05 | B28
29 | 0.31 | B29
30 | 0.21 | B30
31 | 0.56 | B31
32 | 0.82 | B32
